Data: US20220340646A1 (OSAKA CITY UNIVERSITY, published 2022)
Substitutions are numbered along the chain they refer to. Non-standard residues stand in square brackets, D forms with d. No end group written: not given here. pT = C[C@@H](OP(=O)(O)O)[C@H](N)C(=O)O; pS = N[C@@H](COP(=O)(O)O)C(=O)O

T1: pT212 tau peptide
T1 construct: Partial peptide of tau coated on the ELISA plate
T1 peptide: SRSR[pT]PSLPTP

T2: pS202 tau peptide
T2 construct: Partial peptide of tau coated on the ELISA plate
T2 peptide: SSPG[pS]SPGTPC

T3: pS214 tau peptide
T3 peptide: SRSRTP[pS]LPTP

T4: pT212/pS214 tau peptide
T4 peptide: SRSR[pT]P[pS]LPTP

T5: pS199 tau peptide
T5 construct: Partial peptide of tau coated on the ELISA plate
T5 peptide: SGYS[pS]PGSPG

T6: pS46 tau peptide
T6 construct: Partial peptide of tau coated on the ELISA plate
T6 peptide: GLKE[pS]P

T7: pT217 tau peptide
T7 construct: Partial peptide of tau coated on the ELISA plate
T7 peptide: PSLP[pT]PPTR

B1: Ta1505 (antibody, V domains shown)
VH: EVQLVESGGGLVQPKGSLKLSCAASGFAFNSFALNWVRQAPGKSLEWVVHIRSKTNNYATFYADSVKDRFTVSRDDSQSMVYLQMNNLKTEDTGIYYCVRRGPRDSWFGYWGQGTLVTVSA
VL: DILMTQTPLSLPVSLGDQASISCRSSQNIVHSNGNTYLEWYLQKPGQSPKVLIYTVSNRFSGVPDRFSGSGSGTDFTLKISRVEAEDLGVYYCFQGSHLPLTFGGGTKL
notes: also called Ta1505-2
B2: Ta1508 (antibody, V domains shown)
VH: EVHLVESGGGLVQPKGSLKLSCAASGFAFNSFAMNWVRQAPGKGLDWIAHIRSKTNNYVTFYADSVKGRFSISRDDSQSMVYLQMNNLQTEDTGIYYCVRRGPRDSWFGYWGQGTLVTVSA
VL: B1 VL with D1V, I2V
notes: also called Ta15 Series
B3: Ta1509 (antibody, V domains shown)
VH: B2 VH with H3Q, T55S, G68D, S71I, V81I, Q89K, T93S
VL: B1 VL with I2V, T7S, S32T
notes: also called Ta15 Series
B4: Ta1506 (antibody, V domains shown)
VH: B2 VH with G44A
VL: B1 VL with D1G, I2V, T7I
notes: also called Ta15 Series
B5: Ta1502 (antibody, V domains shown)
VH: B1 VH with S79N
VL: B1 VL
notes: also called Ta15 Series
B6: Ta1501 (antibody, V domains shown)
VH: B2 VH with G10E, A40T, D46N, I48V, V59A, G68D, S71T, S79N, V81L, Q89K
VL: B1 VL with I2V, Q18H
notes: also called Ta15 Series
B7: Ta1507 (antibody, V domains shown)
VH: B1 VH with V2I, N30S, E46D, V49A, T55A, N57H, A59V
VL: B1 VL with I2V, M4L
notes: also called Ta15 Series

Target: pSer413(Im) peptide (human)
Sequence (peptide, as listed by the source): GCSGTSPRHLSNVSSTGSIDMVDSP
Test: SPR (Biacore 3000), antibody captured by anti-mouse antibody, peptide as analyte, single cycle kinetics

Row | Kd | koff | kon | Binder
1 | 3.87 nM | 0.000499 s⁻¹ | 129000 M⁻¹ s⁻¹ | B1
2 | 6.76 nM | 0.00098 s⁻¹ | 145000 M⁻¹ s⁻¹ | B2
3 | 14.4 nM | 0.00125 s⁻¹ | 87100 M⁻¹ s⁻¹ | B3
4 | 9.75 nM | 0.00194 s⁻¹ | 199000 M⁻¹ s⁻¹ | B4
5 | 4.2 nM | 0.00047 s⁻¹ | 112000 M⁻¹ s⁻¹ | B5
6 | 18.6 nM | 0.00105 s⁻¹ | 56400 M⁻¹ s⁻¹ | B6
7 | 4.2 nM | 0.000533 s⁻¹ | 127000 M⁻¹ s⁻¹ | B7

Target: T1, pT212 tau peptide
Test: peptide ELISA

Row | binding result | Binder
8 | no binding (tested: 1 µg/mL) | B1
9 | no binding (tested: 1 µg/mL) | B2
10 | no binding (tested: 1 µg/mL) | B3
11 | no binding (tested: 1 µg/mL) | B4
12 | no binding (tested: 1 µg/mL) | B5
13 | no binding (tested: 1 µg/mL) | B6
14 | no binding (tested: 1 µg/mL) | B7

Target: T8, pS412-BSA (phosphorylated as its name says (pS412); conjugated to BSA)
T8 construct: BSA-conjugated tau peptide coated on the ELISA plate
T8 sequence (P02769 25-607 limits assumed): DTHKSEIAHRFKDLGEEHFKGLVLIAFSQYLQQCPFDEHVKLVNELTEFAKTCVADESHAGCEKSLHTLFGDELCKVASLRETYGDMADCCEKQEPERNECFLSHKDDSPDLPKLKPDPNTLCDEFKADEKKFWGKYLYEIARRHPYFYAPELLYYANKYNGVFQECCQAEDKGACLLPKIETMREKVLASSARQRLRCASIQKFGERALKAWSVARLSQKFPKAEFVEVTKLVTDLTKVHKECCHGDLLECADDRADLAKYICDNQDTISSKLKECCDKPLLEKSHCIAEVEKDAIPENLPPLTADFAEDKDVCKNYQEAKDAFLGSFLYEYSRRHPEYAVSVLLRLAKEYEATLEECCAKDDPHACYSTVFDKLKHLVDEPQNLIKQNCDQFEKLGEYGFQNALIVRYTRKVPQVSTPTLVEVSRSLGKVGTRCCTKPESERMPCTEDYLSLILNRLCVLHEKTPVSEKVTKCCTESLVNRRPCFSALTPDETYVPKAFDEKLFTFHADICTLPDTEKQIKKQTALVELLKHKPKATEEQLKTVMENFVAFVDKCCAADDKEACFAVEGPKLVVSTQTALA
Test: peptide ELISA

Row | binding result | Binder
15 | no binding (tested: 1 µg/mL) | B1
16 | no binding (tested: 1 µg/mL) | B2
17 | no binding (tested: 1 µg/mL) | B3
18 | no binding (tested: 1 µg/mL) | B4
19 | no binding (tested: 1 µg/mL) | B5
20 | no binding (tested: 1 µg/mL) | B6
21 | no binding (tested: 1 µg/mL) | B7

Target: T2, pS202 tau peptide
Test: peptide ELISA

Row | binding result | Binder
22 | no binding (tested: 1 µg/mL) | B1
23 | no binding (tested: 1 µg/mL) | B2
24 | no binding (tested: 1 µg/mL) | B3
25 | no binding (tested: 1 µg/mL) | B4
26 | no binding (tested: 1 µg/mL) | B5
27 | no binding (tested: 1 µg/mL) | B6
28 | no binding (tested: 1 µg/mL) | B7

Target: T9, pS400-BSA (phosphorylated as its name says (pS400); conjugated to BSA)
T9 construct: BSA-conjugated tau peptide coated on the ELISA plate
T9 sequence (P02769 25-607 limits assumed): as above
Test: peptide ELISA

Row | binding result | Binder
29 | no binding (tested: 1 µg/mL) | B1
30 | no binding (tested: 1 µg/mL) | B2
31 | no binding (tested: 1 µg/mL) | B3
32 | no binding (tested: 1 µg/mL) | B4
33 | no binding (tested: 1 µg/mL) | B5
34 | no binding (tested: 1 µg/mL) | B6
35 | no binding (tested: 1 µg/mL) | B7

Target: T3, pS214 tau peptide
Test: peptide ELISA

Row | binding result | Binder
36 | no binding (tested: 1 µg/mL) | B1
37 | no binding (tested: 1 µg/mL) | B2
38 | no binding (tested: 1 µg/mL) | B3
39 | no binding (tested: 1 µg/mL) | B4
40 | no binding (tested: 1 µg/mL) | B5
41 | no binding (tested: 1 µg/mL) | B6
42 | no binding (tested: 1 µg/mL) | B7

Target: T4, pT212/pS214 tau peptide
Test: peptide ELISA

Row | binding result | Binder
43 | no binding (tested: 1 µg/mL) | B1
44 | no binding (tested: 1 µg/mL) | B2
45 | no binding (tested: 1 µg/mL) | B3
46 | no binding (tested: 1 µg/mL) | B4
47 | no binding (tested: 1 µg/mL) | B5
48 | no binding (tested: 1 µg/mL) | B6
49 | no binding (tested: 1 µg/mL) | B7

Target: T5, pS199 tau peptide
Test: peptide ELISA

Row | binding result | Binder
50 | no binding (tested: 1 µg/mL) | B1
51 | no binding (tested: 1 µg/mL) | B2
52 | no binding (tested: 1 µg/mL) | B3
53 | no binding (tested: 1 µg/mL) | B4
54 | no binding (tested: 1 µg/mL) | B5
55 | no binding (tested: 1 µg/mL) | B6
56 | no binding (tested: 1 µg/mL) | B7

Target: T6, pS46 tau peptide
Test: peptide ELISA

Row | binding result | Binder
57 | no binding (tested: 1 µg/mL) | B1
58 | no binding (tested: 1 µg/mL) | B2
59 | no binding (tested: 1 µg/mL) | B3
60 | no binding (tested: 1 µg/mL) | B4
61 | no binding (tested: 1 µg/mL) | B5
62 | no binding (tested: 1 µg/mL) | B6
63 | no binding (tested: 1 µg/mL) | B7

Target: T7, pT217 tau peptide
Test: peptide ELISA

Row | binding result | Binder
64 | no binding (tested: 1 µg/mL) | B1
65 | no binding (tested: 1 µg/mL) | B2
66 | no binding (tested: 1 µg/mL) | B3
67 | no binding (tested: 1 µg/mL) | B4
68 | no binding (tested: 1 µg/mL) | B5
69 | no binding (tested: 1 µg/mL) | B6
70 | no binding (tested: 1 µg/mL) | B7
